The text below walks through data of publication PMC6727773 (Molecular Biology of the Cell, 2019).

For the assay, the target named is T1, His-MPDZ-PDZ1-4 (aa 1-700) WT (human, UniProt O75970-3 1-700).
T1 sequence (looked up): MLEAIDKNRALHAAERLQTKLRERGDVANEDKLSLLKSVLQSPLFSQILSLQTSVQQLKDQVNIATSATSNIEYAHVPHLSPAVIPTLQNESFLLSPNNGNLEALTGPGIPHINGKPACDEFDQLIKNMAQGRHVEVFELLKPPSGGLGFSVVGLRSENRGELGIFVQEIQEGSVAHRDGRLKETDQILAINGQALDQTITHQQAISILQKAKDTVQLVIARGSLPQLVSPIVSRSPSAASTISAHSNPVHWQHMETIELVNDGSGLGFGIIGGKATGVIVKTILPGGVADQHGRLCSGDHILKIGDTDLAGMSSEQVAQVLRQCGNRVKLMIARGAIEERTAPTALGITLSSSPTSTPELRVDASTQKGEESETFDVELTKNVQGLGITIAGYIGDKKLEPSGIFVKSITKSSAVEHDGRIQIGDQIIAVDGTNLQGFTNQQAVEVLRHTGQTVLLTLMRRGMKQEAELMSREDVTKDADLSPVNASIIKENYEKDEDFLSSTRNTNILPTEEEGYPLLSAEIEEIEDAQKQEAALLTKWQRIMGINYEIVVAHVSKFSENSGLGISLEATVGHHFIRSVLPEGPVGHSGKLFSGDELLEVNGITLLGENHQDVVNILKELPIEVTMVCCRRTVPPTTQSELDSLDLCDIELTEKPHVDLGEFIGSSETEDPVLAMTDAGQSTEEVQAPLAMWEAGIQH
Nature of the assay: pull-down.

B1: GST-DAPLE (aa 1908-2028) (domain or fragment, human, UniProt Q9P219 1908-2028, looked up)
chain: IATAGAGAAAAGSGSNSQLLHFSPAAAPAARTKPKAPPRSGEVATITPVRAGLSLSEGDGVPGQGCSEGLPAKSPGRSPDLAPHLGRALEDCSRGSVSKSSPASPEPGGDPQTVWYEYGCV
As for B1, the binding result was “binds”.
